Laboratory results taken from IntAct's records for PubMed 30058071.

B1: SH3 and multiple ankyrin repeat domains protein 3 (Homo sapiens), Q9BYB0-1 (parent)
chain: MQLSRAAAAAAAAPAEPPEPLSPAPAPAPAPPGPLPRSAADGAPAGGKGGPGRRAESPGAPFPGASGPGPGPGAGMDGPGASAVVVRVGIPDLQQTKCLRLDPAAPVWAAKQRVLCALNHSLQDALNYGLFQPPSRGRAGKFLDEERLLQEYPPNLDTPLPYLEFRYKRRVYAQNLIDDKQFAKLHTKANLKKFMDYVQLHSTDKVARLLDKGLDPNFHDPDSGECPLSLAAQLDNATDLLKVLKNGGAHLDFRTRDGLTAVHCATRQRNAAALTTLLDLGASPDYKDSRGLTPLYHSALGGGDALCCELLLHDHAQLGITDENGWQEIHQACRFGHVQHLEHLLFYGADMGAQNASGNTALHICALYNQESCARVLLFRGANRDVRNYNSQTAFQVAIIAGNFELAEVIKTHKDSDVVPFRETPSYAKRRRLAGPSGLASPRPLQRSASDINLKGEAQPAASPGPSLRSLPHQLLLQRLQEEKDRDRDADQESNISGPLAGRAGQSKISPSGPGGPGPAPGPGPAPPAPPAPPPRGPKRKLYSAVPGRKFIAVKAHSPQGEGEIPLHRGEAVKVLSIGEGGFWEGTVKGRTGWFPADCVEEVQMRQHDTRPETREDRTKRLFRHYTVGSYDSLTSHSDYVIDDKVAVLQKRDHEGFGFVLRGAKAETPIEEFTPTPAFPALQYLESVDVEGVAWRAGLRTGDFLIEVNGVNVVKVGHKQVVALIRQGGNRLVMKVVSVTRKPEEDGARRRAPPPPKRAPSTTLTLRSKSMTAELEELASIRRRKGEKLDEMLAAAAEPTLRPDIADADSRAATVKQRPTSRRITPAEISSLFERQGLPGPEKLPGSLRKGIPRTKSVGEDEKLASLLEGRFPRSTSMQDPVREGRGIPPPPQTAPPPPPAPYYFDSGPPPAFSPPPPPGRAYDTVRSSFKPGLEARLGAGAAGLYEPGAALGPLPYPERQKRARSMIILQDSAPESGDAPRPPPAATPPERPKRRPRPPGPDSPYANLGAFSASLFAPSKPQRRKSPLVKQLQVEDAQERAALAVGSPGPGGGSFAREPSPTHRGPRPGGLDYGAGDGPGLAFGGPGPAKDRRLEERRRSTVFLSVGAIEGSAPGADLPSLQPSRSIDERLLGTGPTAGRDLLLPSPVSALKPLVSGPSLGPSGSTFIHPLTGKPLDPSSPLALALAARERALASQAPSRSPTPVHSPDADRPGPLFVDVQARDPERGSLASPAFSPRSPAWIPVPARREAEKVPREERKSPEDKKSMILSVLDTSLQRPAGLIVVHATSNGQEPSRLGGAEEERPGTPELAPAPMQSAAVAEPLPSPRAQPPGGTPADAGPGQGSSEEEPELVFAVNLPPAQLSSSDEETREELARIGLVPPPEEFANGVLLATPLAGPGPSPTTVPSPASGKPSSEPPPAPESAADSGVEEADTRSSSDPHLETTSTISTVSSMSTLSSESGELTDTHTSFADGHTFLLEKPPVPPKPKLKSPLGKGPVTFRDPLLKQSSDSELMAQQHHAASAGLASAAGPARPRYLFQRRSKLWGDPVESRGLPGPEDDKPTVISELSSRLQQLNKDTRSLGEEPVGGLGSLLDPAKKSPIAAARLFSSLGELSSISAQRSPGGPGGGASYSVRPSGRYPVARRAPSPVKPASLERVEGLGAGAGGAGRPFGLTPPTILKSSSLSIPHEPKEVRFVVRSVSARSRSPSPSPLPSPASGPGPGAPGPRRPFQQKPLQLWSKFDVGDWLESIHLGEHRDRFEDHEIEGAHLPALTKDDFVELGVTRVGHRMNIERALRQLDGS
B2: SH3 and multiple ankyrin repeat domains protein 2 (Rattus norvegicus (Rat)), Q9QX74-7 (parent)
chain: MPRSPTSSEDEMAQSFSDYSVGSESDSSKEETIYDTIRATTEKPGGVKMEDLQGNTLVIRVVIQDLQQTKCIRFNPDATVWVAKQRILCTLNQGLKDVLNYGLFQPASNGRDGKFLDEERLLREYPQPMGQGVPSLEFRYKKRVYKQSNLDEKQLARLHTKTNLKKFMDHTQHRSVEKLVKLLDRGLDPNFHDLETGETPLTLAAQLDGSMEVIKALRNGGAHLDFRSRDGMTALHKAARMRNQVALKTLLELGASPDYKDSYGLTPLYHTAIVGGDPYCCELLLHEHASVCCKDENGWHEIHQACRYGHVQHLEHLLFYGADMSAQNASGNTALHICALYNQDSCARVLLFRGGDKELKNYNSQTPFQVAIIAGNFELAEYIKNHKETDIVPFREAPAYSNRRRRPPNTLAAPRVLLRSNSDNNLNAGAPEWAVCSAATSHRSLSPQLLQQTPSKPDGATKSLGSYAPGPRSRSPSLNRLGGAGEDGKRPQPPHWHVGSPFTPGANKDSLSTFEYPGPRRKLYSAVPGRLFVAIKPYQPQVDGEIPLHRGDRVKVLSIGEGGFWEGSARGHIGWFPAECVEEVQCKPRDSQAETRADRSKKLFRHYTVGSYDSFDAASDCIIEDKTVVLQKKDNEGFGFVLRGAKADTPIEEFTPTPAFPALQYLESVDEGGVAWQAGLRTGDFLIEVNNENVVKVGHRQVVNMIRQGGNHLVLKVVTVTRNLDPDDTARKKAPPPPKRAPTTALTLRSKSMTAELEELDKPEEIVPASKPSRTAENVAIESRVATIKQRPTSRCFPAASDVNSVYERQGIAVMTPTVPGSPKGPFLGLPRGTMRRQKSIDSRIFLSGITEEERQFLAPPMLKFTRSLSMPDTSEDIPPPPQSVPPSPPPPSPTTYNCPRSPTPRVYGTIKPAFNQNPVAKVPPATRSDTVATMMREKGMFYRRELDRFSLDSEDVYSRSPAPQAAFRTKRGQMPENPYSEVGKIASKAVYVPAKPARRKGMLVKQSNVEDSPEKTCSIPIPTIIVKEPSTSSSGKSSQGSSMEIDPQATEPGQLRPDDSLTVSSPFAAAIAGAVRDREKRLEARRNSPAFLSTDLGDEDVGLGPPAPRMQPSKFPEEGGFGDEDETEQPLLPTPGAAPRELENHFLGGGEAGAQGEAGGPLSSTSKAKGPESGPAAALKSSSPASPENYVHPLTGRLLDPSSPLALALSARDRAMQESQQGHKGEAPKADLNKPLYIDTKMRPSVESGFPPVTRQNTRGPLRRQETENKYETDLSKDRRADDKKNMLINIVDTAQQKSAGLLMVHTVDIPVAGPPLEEEEDREDGDTKPDHSPSTVPEGVPKTEGALQISAAPEPAAAPGRTIVAAGSVEEAVILPFRIPPPPLASVDLDEDFLFTEPLPPPLEFANSFDIPDDRAASVPALADLVKQKKSDTPQPPSLNSSQPANSTDSKKPAGISNCLPSSFLPPPESFDAVTDSGIEEVDSRSSSDHHLETTSTISTVSSISTLSSEGGESMDTCTVYADGQAFVVDKPPVPPKPKMKPIVHKSNALYQDTLPEEDTDGFVIPPPAPPPPPGSAQAGVAKVIQPRTSKLWGDVTEVKSPILSGPKANVISELNSILQQMNRGKSVKPGEGLELPVGAKSANLAPRSPEVMSTVSGTRSTTVTFTVRPGTSQPITLQSRPPDYESRTSGPRRAPSPVVSPTELSKEILPTPPSAAAASPSPTLSDVFSLPSQSPAGDLFGLNPAGRSRSPSPSILQQPISNKPFTTKPVHLWTKPDVADWLESLNLGEHKETFMDNEIDGSHLPNLQKEDLIDLGVTRVGHRMNIERALKQLLDR

Variants of: B1
Settings: with cac1d_human CACNA1D

Row | effect of a mutation on the interaction | Variant
1 | with no effect | K555Y

Variants of: B2
Settings: with cac1d_rat Cacna1d

Row | effect of a mutation on the interaction | Variant
2 | with no effect | S558D
3 | decreasing interaction strength | S558N
